Numbered stars: 1 amine (or outer) side, 2 acyl side, 3 side chain; on linkers, the order of the positions; unused ones are H or OH. Square brackets hold non-standard residues; d marks the D form. Side chains are listed from the residue outwards. Ends that are not written are not given here. * marks the point of attachment. C18 diacid = O=C(O)CCCCCCCCCCCCCCCCC(=O)*; γGlu = O=C(O)[C@H](CCC(=O)[*:2])N[*:1]; AEEA = NCCOCCOCC(=O)O; Aib = CC(C)(N)C(=O)O
B1: N^ε27 ([2-[2-[2-[[2-[2-[2-[[(4S)-5-hydroxy-4-[(18-hydroxy-18-oxooctadecanoyl)amino]-5-oxopentanoyl]amino]ethoxy]ethoxy]acetyl]amino]ethoxy]ethoxy]acetyl]) … (peptide)
peptide: HSQGTFTSDYSKYLDSKRAQEFVQWLK([AEEA-AEEA-γGlu-C18 diacid])NT-NH2
modifications: N-terminus assumed
SMILES: CC(C)C[C@H](NC(=O)[C@H](Cc1ccc(O)cc1)NC(=O)[C@H](CCCCN)NC(=O)[C@H](CO)NC(=O)[C@H](Cc1ccc(O)cc1)NC(=O)[C@H](CC(=O)O)NC(=O)[C@H](CO)NC(=O)[C@@H](NC(=O)[C@H](Cc1ccccc1)NC(=O)[C@@H](NC(=O)CNC(=O)[C@H](CCC(N)=O)NC(=O)[C@H](CO)NC(=O)[C@@H](N)Cc1c[nH]cn1)[C@@H](C)O)[C@@H](C)O)C(=O)N[C@@H](CC(=O)O)C(=O)N[C@@H](CO)C(=O)N[C@@H](CCCCN)C(=O)N[C@@H](CCCNC(=N)N)C(=O)N[C@@H](C)C(=O)N[C@@H](CCC(N)=O)C(=O)N[C@@H](CCC(=O)O)C(=O)N[C@@H](Cc1ccccc1)C(=O)N[C@H](C(=O)N[C@@H](CCC(N)=O)C(=O)N[C@@H](Cc1c[nH]c2ccccc12)C(=O)N[C@@H](CC(C)C)C(=O)N[C@@H](CCCCNC(=O)COCCOCCNC(=O)COCCOCCNC(=O)CC[C@H](NC(=O)CCCCCCCCCCCCCCCCC(=O)O)C(=O)O)C(=O)N[C@@H](CC(N)=O)C(=O)N[C@H](C(N)=O)[C@@H](C)O)C(C)C
B2: N^ε16-([2-[2-[2-[[2-[2-[2-[[(4S)-5-hydroxy-4-[(18-hydroxy-18-oxooctadecanoyl)amino]-5-oxopentanoyl]amino]ethoxy]ethoxy]acetyl]amino]ethoxy]ethoxy]acetyl])[Aib^2 … (peptide)
peptide: H[Aib]QGTFTSDYSKYLDK([AEEA-AEEA-γGlu-C18 diacid])KRAQEFVQWLLNT-NH2
modifications: N-terminus assumed
SMILES: CC(C)C[C@H](NC(=O)[C@H](Cc1ccc(O)cc1)NC(=O)[C@H](CCCCN)NC(=O)[C@H](CO)NC(=O)[C@H](Cc1ccc(O)cc1)NC(=O)[C@H](CC(=O)O)NC(=O)[C@H](CO)NC(=O)[C@@H](NC(=O)[C@H](Cc1ccccc1)NC(=O)[C@@H](NC(=O)CNC(=O)[C@H](CCC(N)=O)NC(=O)C(C)(C)NC(=O)[C@@H](N)Cc1c[nH]cn1)[C@@H](C)O)[C@@H](C)O)C(=O)N[C@@H](CC(=O)O)C(=O)N[C@@H](CCCCNC(=O)COCCOCCNC(=O)COCCOCCNC(=O)CC[C@H](NC(=O)CCCCCCCCCCCCCCCCC(=O)O)C(=O)O)C(=O)N[C@@H](CCCCN)C(=O)N[C@@H](CCCNC(=N)N)C(=O)N[C@@H](C)C(=O)N[C@@H](CCC(N)=O)C(=O)N[C@@H](CCC(=O)O)C(=O)N[C@@H](Cc1ccccc1)C(=O)N[C@H](C(=O)N[C@@H](CCC(N)=O)C(=O)N[C@@H](Cc1c[nH]c2ccccc12)C(=O)N[C@@H](CC(C)C)C(=O)N[C@@H](CC(C)C)C(=O)N[C@@H](CC(N)=O)C(=O)N[C@H](C(N)=O)[C@@H](C)O)C(C)C
B3: N^ε25 … (peptide)
peptide: HSQGTFTSDYSKYLDSKRAQEFVQK([AEEA-AEEA-γGlu-C18 diacid])LLNT-NH2
modifications: N-terminus assumed
SMILES: CC(C)C[C@H](NC(=O)[C@H](Cc1ccc(O)cc1)NC(=O)[C@H](CCCCN)NC(=O)[C@H](CO)NC(=O)[C@H](Cc1ccc(O)cc1)NC(=O)[C@H](CC(=O)O)NC(=O)[C@H](CO)NC(=O)[C@@H](NC(=O)[C@H](Cc1ccccc1)NC(=O)[C@@H](NC(=O)CNC(=O)[C@H](CCC(N)=O)NC(=O)[C@H](CO)NC(=O)[C@@H](N)Cc1c[nH]cn1)[C@@H](C)O)[C@@H](C)O)C(=O)N[C@@H](CC(=O)O)C(=O)N[C@@H](CO)C(=O)N[C@@H](CCCCN)C(=O)N[C@@H](CCCNC(=N)N)C(=O)N[C@@H](C)C(=O)N[C@@H](CCC(N)=O)C(=O)N[C@@H](CCC(=O)O)C(=O)N[C@@H](Cc1ccccc1)C(=O)N[C@H](C(=O)N[C@@H](CCC(N)=O)C(=O)N[C@@H](CCCCNC(=O)COCCOCCNC(=O)COCCOCCNC(=O)CC[C@H](NC(=O)CCCCCCCCCCCCCCCCC(=O)O)C(=O)O)C(=O)N[C@@H](CC(C)C)C(=O)N[C@@H](CC(C)C)C(=O)N[C@@H](CC(N)=O)C(=O)N[C@H](C(N)=O)[C@@H](C)O)C(C)C
B4: N^ε24-([2-[2-[2-[[2-[2-[2-[[(4S)-5-hydroxy-4-[(18-hydroxy-18-oxooctadecanoyl)amino]-5-oxopentanoyl]amino]ethoxy]ethoxy]acetyl]amino]ethoxy]ethoxy]acetyl])[Lys^1 … (peptide)
peptide: HSQGTFTSDYSKYLDSKRAQEFVK([AEEA-AEEA-γGlu-C18 diacid])WLLET-NH2
modifications: N-terminus assumed
SMILES: CC(C)C[C@H](NC(=O)[C@H](Cc1ccc(O)cc1)NC(=O)[C@H](CCCCN)NC(=O)[C@H](CO)NC(=O)[C@H](Cc1ccc(O)cc1)NC(=O)[C@H](CC(=O)O)NC(=O)[C@H](CO)NC(=O)[C@@H](NC(=O)[C@H](Cc1ccccc1)NC(=O)[C@@H](NC(=O)CNC(=O)[C@H](CCC(N)=O)NC(=O)[C@H](CO)NC(=O)[C@@H](N)Cc1c[nH]cn1)[C@@H](C)O)[C@@H](C)O)C(=O)N[C@@H](CC(=O)O)C(=O)N[C@@H](CO)C(=O)N[C@@H](CCCCN)C(=O)N[C@@H](CCCNC(=N)N)C(=O)N[C@@H](C)C(=O)N[C@@H](CCC(N)=O)C(=O)N[C@@H](CCC(=O)O)C(=O)N[C@@H](Cc1ccccc1)C(=O)N[C@H](C(=O)N[C@@H](CCCCNC(=O)COCCOCCNC(=O)COCCOCCNC(=O)CC[C@H](NC(=O)CCCCCCCCCCCCCCCCC(=O)O)C(=O)O)C(=O)N[C@@H](Cc1c[nH]c2ccccc12)C(=O)N[C@@H](CC(C)C)C(=O)N[C@@H](CC(C)C)C(=O)N[C@@H](CCC(=O)O)C(=O)N[C@H](C(N)=O)[C@@H](C)O)C(C)C
B5: N^ε24-([2-[2-[2-[[2-[2-[2-[[(4S)-5-hydroxy-4-[(18-hydroxy-18-oxooctadecanoyl)amino]-5-oxopentanoyl]amino]ethoxy]ethoxy]acetyl]amino]ethoxy]ethoxy]acetyl]) … (peptide)
peptide: HSQGTFTSDYSKYLDSKRAQEFVK([AEEA-AEEA-γGlu-C18 diacid])WLLST-NH2
modifications: N-terminus assumed
SMILES: CC(C)C[C@H](NC(=O)[C@H](Cc1ccc(O)cc1)NC(=O)[C@H](CCCCN)NC(=O)[C@H](CO)NC(=O)[C@H](Cc1ccc(O)cc1)NC(=O)[C@H](CC(=O)O)NC(=O)[C@H](CO)NC(=O)[C@@H](NC(=O)[C@H](Cc1ccccc1)NC(=O)[C@@H](NC(=O)CNC(=O)[C@H](CCC(N)=O)NC(=O)[C@H](CO)NC(=O)[C@@H](N)Cc1c[nH]cn1)[C@@H](C)O)[C@@H](C)O)C(=O)N[C@@H](CC(=O)O)C(=O)N[C@@H](CO)C(=O)N[C@@H](CCCCN)C(=O)N[C@@H](CCCNC(=N)N)C(=O)N[C@@H](C)C(=O)N[C@@H](CCC(N)=O)C(=O)N[C@@H](CCC(=O)O)C(=O)N[C@@H](Cc1ccccc1)C(=O)N[C@H](C(=O)N[C@@H](CCCCNC(=O)COCCOCCNC(=O)COCCOCCNC(=O)CC[C@H](NC(=O)CCCCCCCCCCCCCCCCC(=O)O)C(=O)O)C(=O)N[C@@H](Cc1c[nH]c2ccccc12)C(=O)N[C@@H](CC(C)C)C(=O)N[C@@H](CC(C)C)C(=O)N[C@@H](CO)C(=O)N[C@H](C(N)=O)[C@@H](C)O)C(C)C
B6: N^ε24-([2-[2-[2-[[2-[2-[2-[[(4S)-5-hydroxy-4-[(18-hydroxy-18-oxooctadecanoyl)amino]-5-oxopentanoyl]amino]ethoxy]ethoxy]acetyl]amino]ethoxy]ethoxy]acetyl])[Glu^1 … (peptide)
peptide: HSQGTFTSDYSKYLDEKRAQEFVK([AEEA-AEEA-γGlu-C18 diacid])WLLNT-NH2
modifications: N-terminus assumed
SMILES: CC(C)C[C@H](NC(=O)[C@H](Cc1ccc(O)cc1)NC(=O)[C@H](CCCCN)NC(=O)[C@H](CO)NC(=O)[C@H](Cc1ccc(O)cc1)NC(=O)[C@H](CC(=O)O)NC(=O)[C@H](CO)NC(=O)[C@@H](NC(=O)[C@H](Cc1ccccc1)NC(=O)[C@@H](NC(=O)CNC(=O)[C@H](CCC(N)=O)NC(=O)[C@H](CO)NC(=O)[C@@H](N)Cc1c[nH]cn1)[C@@H](C)O)[C@@H](C)O)C(=O)N[C@@H](CC(=O)O)C(=O)N[C@@H](CCC(=O)O)C(=O)N[C@@H](CCCCN)C(=O)N[C@@H](CCCNC(=N)N)C(=O)N[C@@H](C)C(=O)N[C@@H](CCC(N)=O)C(=O)N[C@@H](CCC(=O)O)C(=O)N[C@@H](Cc1ccccc1)C(=O)N[C@H](C(=O)N[C@@H](CCCCNC(=O)COCCOCCNC(=O)COCCOCCNC(=O)CC[C@H](NC(=O)CCCCCCCCCCCCCCCCC(=O)O)C(=O)O)C(=O)N[C@@H](Cc1c[nH]c2ccccc12)C(=O)N[C@@H](CC(C)C)C(=O)N[C@@H](CC(C)C)C(=O)N[C@@H](CC(N)=O)C(=O)N[C@H](C(N)=O)[C@@H](C)O)C(C)C
B7: N^ε28 ([2-[2-[2-[[2-[2-[2-[[(4S)-5-hydroxy-4-[(18-hydroxy-18-oxooctadecanoyl)amino]-5-oxopentanoyl]amino]ethoxy]ethoxy]acetyl]amino]ethoxy]ethoxy]acetyl]) … (peptide)
peptide: HSQGTFTSDYSKYLDSKRAQEFVQWLLK([AEEA-AEEA-γGlu-C18 diacid])T-NH2
modifications: N-terminus assumed
SMILES: CC(C)C[C@H](NC(=O)[C@H](Cc1ccc(O)cc1)NC(=O)[C@H](CCCCN)NC(=O)[C@H](CO)NC(=O)[C@H](Cc1ccc(O)cc1)NC(=O)[C@H](CC(=O)O)NC(=O)[C@H](CO)NC(=O)[C@@H](NC(=O)[C@H](Cc1ccccc1)NC(=O)[C@@H](NC(=O)CNC(=O)[C@H](CCC(N)=O)NC(=O)[C@H](CO)NC(=O)[C@@H](N)Cc1c[nH]cn1)[C@@H](C)O)[C@@H](C)O)C(=O)N[C@@H](CC(=O)O)C(=O)N[C@@H](CO)C(=O)N[C@@H](CCCCN)C(=O)N[C@@H](CCCNC(=N)N)C(=O)N[C@@H](C)C(=O)N[C@@H](CCC(N)=O)C(=O)N[C@@H](CCC(=O)O)C(=O)N[C@@H](Cc1ccccc1)C(=O)N[C@H](C(=O)N[C@@H](CCC(N)=O)C(=O)N[C@@H](Cc1c[nH]c2ccccc12)C(=O)N[C@@H](CC(C)C)C(=O)N[C@@H](CC(C)C)C(=O)N[C@@H](CCCCNC(=O)COCCOCCNC(=O)COCCOCCNC(=O)CC[C@H](NC(=O)CCCCCCCCCCCCCCCCC(=O)O)C(=O)O)C(=O)N[C@H](C(N)=O)[C@@H](C)O)C(C)C
B8: N^α- ([Lys^17, Glu^21, Leu^27]Glucagonyl) … (peptide)
peptide: HSQGTFTSDYSKYLDSKRAQEFVQWLLNTK([AEEA-AEEA-γGlu-C18 diacid])-NH2
modifications: N-terminus assumed
SMILES: CC(C)C[C@H](NC(=O)[C@H](Cc1ccc(O)cc1)NC(=O)[C@H](CCCCN)NC(=O)[C@H](CO)NC(=O)[C@H](Cc1ccc(O)cc1)NC(=O)[C@H](CC(=O)O)NC(=O)[C@H](CO)NC(=O)[C@@H](NC(=O)[C@H](Cc1ccccc1)NC(=O)[C@@H](NC(=O)CNC(=O)[C@H](CCC(N)=O)NC(=O)[C@H](CO)NC(=O)[C@@H](N)Cc1c[nH]cn1)[C@@H](C)O)[C@@H](C)O)C(=O)N[C@@H](CC(=O)O)C(=O)N[C@@H](CO)C(=O)N[C@@H](CCCCN)C(=O)N[C@@H](CCCNC(=N)N)C(=O)N[C@@H](C)C(=O)N[C@@H](CCC(N)=O)C(=O)N[C@@H](CCC(=O)O)C(=O)N[C@@H](Cc1ccccc1)C(=O)N[C@H](C(=O)N[C@@H](CCC(N)=O)C(=O)N[C@@H](Cc1c[nH]c2ccccc12)C(=O)N[C@@H](CC(C)C)C(=O)N[C@@H](CC(C)C)C(=O)N[C@@H](CC(N)=O)C(=O)N[C@H](C(=O)N[C@@H](CCCCNC(=O)COCCOCCNC(=O)COCCOCCNC(=O)CC[C@H](NC(=O)CCCCCCCCCCCCCCCCC(=O)O)C(=O)O)C(N)=O)[C@@H](C)O)C(C)C

Biological target: glucagon receptor (UniProt P47871 26-477, limits assumed)
Assay: cell-based or functional assay

Chain of glucagon receptor (P47871 26-477 limits assumed): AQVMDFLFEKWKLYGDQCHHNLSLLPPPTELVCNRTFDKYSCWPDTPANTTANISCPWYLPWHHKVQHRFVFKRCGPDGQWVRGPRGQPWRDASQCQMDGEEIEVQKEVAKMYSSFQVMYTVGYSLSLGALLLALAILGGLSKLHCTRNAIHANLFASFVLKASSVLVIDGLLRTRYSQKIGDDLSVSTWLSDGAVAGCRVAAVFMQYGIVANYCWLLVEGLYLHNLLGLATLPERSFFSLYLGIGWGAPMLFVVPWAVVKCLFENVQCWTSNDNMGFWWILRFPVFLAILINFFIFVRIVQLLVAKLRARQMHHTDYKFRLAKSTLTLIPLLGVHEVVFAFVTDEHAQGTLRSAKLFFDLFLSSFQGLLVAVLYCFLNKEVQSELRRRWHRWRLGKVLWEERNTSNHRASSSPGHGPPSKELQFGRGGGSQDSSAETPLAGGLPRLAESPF

B1 and B2 are the same in “Assay (I) Glucagon [EC50]” value: 7 pM for the first, 7 pM for the second.

Going from B3 to HSQGTFTSDYSKYLDSKKAQEFVK([AEEA-AEEA-γGlu-C18 diacid])WLLNT, the “Assay (I) Glucagon [EC50]” value rises from 12 pM to 19 pM (1.6-fold).

Going from B4 to B5, the “Assay (I) Glucagon [EC50]” value rises from 3 pM to 7 pM (2.3-fold).

Compared with B6, B7 is 5-fold lower in “Assay (I) Glucagon [EC50]” value: 15 pM for the first, 3 pM for the second.

With B8 the “Assay (I) Glucagon [EC50]” value was 17 pM.

From patent US20130143798A1 (Novo Nordisk, published 2013)
